Measured values published in article doi:10.1101/2021.08.23.457303 (bioRxiv, 2021).

Experiments:
[1] = molecular target: T1, His-tagged human Bin1 isoform 8, wild type, full length (human, UniProt O00499-8 1-454); assay: pull-down
T1 sequence: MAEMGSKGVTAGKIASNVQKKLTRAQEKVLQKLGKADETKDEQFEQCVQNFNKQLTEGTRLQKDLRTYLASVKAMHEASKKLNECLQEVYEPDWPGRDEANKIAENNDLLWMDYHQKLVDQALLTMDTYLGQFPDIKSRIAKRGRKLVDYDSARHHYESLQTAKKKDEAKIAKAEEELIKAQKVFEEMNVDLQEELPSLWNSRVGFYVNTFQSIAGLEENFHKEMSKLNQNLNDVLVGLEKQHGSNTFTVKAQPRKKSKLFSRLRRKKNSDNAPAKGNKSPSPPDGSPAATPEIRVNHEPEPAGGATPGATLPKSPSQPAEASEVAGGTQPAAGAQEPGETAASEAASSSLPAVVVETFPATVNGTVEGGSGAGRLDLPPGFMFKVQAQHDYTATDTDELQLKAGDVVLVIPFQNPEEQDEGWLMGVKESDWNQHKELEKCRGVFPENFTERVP

[2] = molecular target: T2, His-tagged human Bin1 isoform 8 K436X (CNM-associated, truncated SH3 domain) (human, UniProt O00499-8 1-435); assay: pull-down
T2 sequence: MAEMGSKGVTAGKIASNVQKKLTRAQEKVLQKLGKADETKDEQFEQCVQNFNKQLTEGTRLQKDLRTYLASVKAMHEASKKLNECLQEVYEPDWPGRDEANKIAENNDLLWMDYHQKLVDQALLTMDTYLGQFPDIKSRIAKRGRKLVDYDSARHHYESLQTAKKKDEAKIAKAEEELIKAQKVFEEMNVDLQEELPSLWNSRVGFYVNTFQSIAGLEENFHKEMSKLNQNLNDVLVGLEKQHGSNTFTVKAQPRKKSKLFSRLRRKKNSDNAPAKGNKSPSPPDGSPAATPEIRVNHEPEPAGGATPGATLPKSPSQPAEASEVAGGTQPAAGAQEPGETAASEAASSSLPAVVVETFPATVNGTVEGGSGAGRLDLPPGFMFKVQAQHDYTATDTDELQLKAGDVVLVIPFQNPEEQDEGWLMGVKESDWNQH

Kd [1]: 180 nM
Kd [2]: 267 nM
B1: GST-tagged PRD domain of Dyn2 (domain or fragment)
chain: PVPPPVDDTWLQSASSHSPTPQRRPVSSIHPPGRPPAVRGPTPGPPLIPVPVGAAASFSAPPIPSRPGPQSVFANSDLFPAPPQIPSRPVRIPPGIPPGVPSRRPPAAPSRPTIIRPAEPSLLD
